The results in this text go back to patent US20250042970A1 (AURINIA PHARMACEUTICALS, published 2025).

Ends that are not written are not given here. pIg22 = chimeric Ig-Fc consisting of the CH2 domain of PIg18 (IgG2 derivative) and the CH3 domain of IgG1

Experiment [1] has as its target T1, FLAG-tagged cynomolgous APRIL (cynomolgus monkey, UniProt A0ACM8R0G4 110-250 (rhesus entry)).
T1 construct: FLAG-tagged, expressed with TPA signal peptide; also called cyAPRIL
T1 sequence: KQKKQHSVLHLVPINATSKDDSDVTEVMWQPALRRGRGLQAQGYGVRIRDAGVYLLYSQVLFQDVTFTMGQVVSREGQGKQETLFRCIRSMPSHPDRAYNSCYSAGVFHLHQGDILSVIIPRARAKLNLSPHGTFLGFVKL
The experiment is described as follows: BIACORE SPR; NB = No binding. Here is the method: (§1) For human BAFF, cynomolgus monkey APRIL, and mouse APRIL measurements, mouse monoclonal antibody (IgG1) anti-FLAG M2 (Sigma Aldrich, Cat. No. F1804) was immobilized on CM3 sensor chips (GE Healthcare, Cat. No. BR-1005-41) according to the manufacturer's protocol. Antibody was diluted to 30 μg/ml in immobilization buffer (10 mM pH 5±0.20; GE Healthcare; GE Healthcare, Catalog No. BR-1003-51). […] Unreacted sites were quenched with 35 μl of 1M ethanolamine-HCl, pH 8.5 (GE Healthcare, GE Healthcare, Cat. No. BR-1000-50). This procedure typically yielded 3,000-4,000 response units (RU) of coupled antibody.
(§2) The fusion polypeptides were diluted in HBS-EP buffer and flowed over ligand-coated sensor chips. The variant BCMA-Ig and surrogate control fusion proteins were injected at three concentrations (1.5 nM, 15 nM, and 150 nM at 30 μl/min for 2 minutes per association phase) in a single binding cycle, followed by a 20 minute incubation with HBS-EP buffer containing no protein at the same flow rate. A similar protocol was followed for Z-TACI-Ig, except that the injections were at 4.5 nM, 45 nM, and 450 nM.
Using available information from the structures and published literature, several residues in BAv8-10 were targeted for substitution with conserved as well as non-conserved residues and their effect on BAFF and APRIL binding was assessed by BIACORE.
(In general: In SPR one partner is held on a chip, and binding of the other changes the refractive index at the surface.)

The target in experiment [2] is T1, FLAG-tagged cynomolgous APRIL. The experiment in a line: BIACORE SPR. Here is the method:
as §1, §2
(§3) The various fusion proteins described above were expressed and purified as described previously (Examples 2 and 3 for the CET1019AS based plasmids and Examples 7 and 8 for the pcDNA based plasmids). […] The BAv9-1-Ig Fc proteins typically exist in solution as a dimeric fusion protein. The purified fusion proteins were assayed for binding activity using BIACORE (Example 9) and KINEXA (Example 11) assays.

In experiment [3] the target is T2, FLAG-tagged human BAFF (human, UniProt Q9Y275 134-285, limits assumed).
T2 construct: used in BIACORE (Ex. 9) and KINEXA (Ex. 11); also called huBAFF
The experiment in a line: BIACORE SPR. The method, then: as §1, §2, §3

Experiment [4] addresses T3, FLAG-tagged recombinant human APRIL (human, UniProt O75888 105-250).
T3 construct: KINEXA ligand; also called huAPRIL
T3 sequence: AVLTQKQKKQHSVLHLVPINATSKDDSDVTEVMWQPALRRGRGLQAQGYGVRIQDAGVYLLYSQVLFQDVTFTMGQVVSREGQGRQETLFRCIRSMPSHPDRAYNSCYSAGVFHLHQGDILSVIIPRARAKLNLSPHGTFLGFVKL
The experiment is described as follows: KinExA. The method, then:
(§4) Equilibrium measurements were performed using FLAG-tagged, recombinant huBAFF and huAPRIL ligands. Fixed ligand concentrations of human BAFF or human APRIL were incubated with serial dilutions of the variant BCMA ECD-Ig fusion polypeptides, and free ligand was detected in a KINEXA 3200 Instrument. variant BCMA ECD-Ig fusion polypeptides were first diluted in equilibration buffer (1×PBS, pH 7.4, 1 mg/ml BSA) to a range of concentrations from 10 nM to 100 fM. The linear portion of the dilution series was typically 2-fold. Ligands were diluted in equilibration buffer to fixed concentrations ranging from 5 to 20 pM and then incubated with the variant BCMA-Ig dilutions in total reaction volumes ranging from 4.5 to 15 ml. Samples were incubated at room temperature for 48-72 hours to reach equilibrium. For each data point, a fresh column of 850 μl of bead slurry coated with Variant BAv-238475-Ig was introduced into the KINEXA flow cell. Equilibrated samples ranging from 1 to 5 ml reaction volume were injected at a flow rate of 0.25 ml/min. […] The DyLight 649 fluorescent signal was detected using the red filter set (620/30 nanometer excitation filter, 670/40 nanometer emission filter, 645 nanometer dichroic filter) on the KinExA instrument and converted to a voltage signal that was directly proportional to the concentration of free ligand in the equilibrated sample.
(§5) The standard kinetic exclusion assays and data analyses described above were performed on protein preparations of various variant BCMA ECD-Ig fusion polypeptides, as well as Z-TACI-Ig and [S40G]huBCMA ECD-Ig fusion polypeptides. FIG. 8A, FIG. 8B, and Table 4 summarize the binding data for representative variant BCMA ECD-Ig polypeptides and controls in molar concentrations of huBAFF or huAPRIL determined by KINEXA binding assays.
In general terms: In KinExA the mixture passes briefly over coated beads that capture the unbound partner.

Experiment [5] deals with T2, FLAG-tagged human BAFF. The experiment in a line: KinExA. The method, then:
as §4, §5

Experiment [6] concerns the target T3, FLAG-tagged recombinant human APRIL. The experiment in a line: KinExA. The method, then: as §4
(§6) Table 5 provides the selectivities of exemplary variant BCMA polypeptides with respect to BAFF and APRIL.
The source holds these as a separate data set.

Experiment [7] deals with T2, FLAG-tagged human BAFF. The experiment is described as follows: KinExA. Here is the method:
as §4, §6
The source holds these as a separate data set.

B1: BAv45-Ig (Fc fusion)
chain: AGQCSQNEYFDHLLRACIPCQVNCSSNTPPLTCQRYCNAGVTNSVKGTNA
notes: not shown: PIg18: human IgG2 Fc, Ser at Fc positions 4, 5, 11 (native Cys)
Consider B1, for which the binding result in experiment [1] was “no binding (tested: 150 nM)”.

B2: BAv85-5L-pIg22 (Fc fusion, human)
chain: AGQCSQNEYFDHLVRACIPCQARCSSNTPPLTCQRYCNAGVTNSVGGGGS-pIg22
modifications: not fully specified; cysteine pairing not given here
notes: domain: Fc; not shown: PIg22: chimeric Fc, CH2 domain of PIg18 (human IgG2 derivative) and CH3 domain of human IgG1
With B2, the Kd (commonly the free concentration of one partner at which half of the binding sites on the other are occupied at equilibrium, for simple one-to-one binding) in experiment [2] was 784 pM; in the experiment with FLAG-tagged human BAFF [3] it was 6.76 pM.

B3: BAv83-5L-pIg22 (Fc fusion, human)
chain: AGQCSQNEYFDPLVRACIPCQIRCSSNTPPLTCQRYCNAGVTNSVGGGGS-pIg22
modifications: not fully specified; cysteine pairing not given here
notes: as for B2
On to B3, for which the Kd in experiment [2] turned out to be 861 pM; with FLAG-tagged human BAFF [3] it was 8.61 pM.

B4: BAv74-Ig (Fc fusion)
chain: AGQCSQNEYFDHLIRACTPCQVRCSSNTPPLTCQRYCNAGVTNSVKGTNA
notes: as for B1
For the molecule B4, in experiment [4], the Kd is 18.3 pM and the “fold improvement over control” value was 0.00871 fold. Further, in the experiment with FLAG-tagged human BAFF [5], the Kd came out at 21.8 pM and the “fold improvement over control” value came to 10.4 fold. In addition, in experiment [6], the “Selectivity for huAPRIL (KD BAFF/KD APRIL)” value (“Selectivity for huAPRIL” for short) came out at 1.19 ratio. Besides, the “Selectivity for huBAFF (KD APRIL/KD BAFF)” value (from here on “Selectivity for huBAFF”) with FLAG-tagged human BAFF [7] was 0.84 ratio.

B5: BAv58-Ig (Fc fusion)
chain: AGQCSQNEYFDSLVRHCIPCQIRCSSNTPPLTCQRYCNAGVTNSVKGTNA
notes: as for B1
Turning to B5, in experiment [4], the Kd came to 31 pM and the “fold improvement over control” value amounted to 0.00514 fold. Besides, in the experiment with FLAG-tagged human BAFF [5], the Kd was 0.24 pM and the “fold improvement over control” value turned out to be 940 fold. In addition, in experiment [6], the “Selectivity for huAPRIL” value came out at 0.008 ratio. Besides, the “Selectivity for huBAFF” value with FLAG-tagged human BAFF [7] came out at 129 ratio.

B6: BAv79-Ig (Fc fusion)
chain: AGQCSQNEYFDPLIRACIPCQARCSSNTPPLTCQRYCNAGVTNSVKGTNA
notes: as for B1
Take B6: the binding result in experiment [1] is “no binding (tested: 150 nM)”.

B7: BAv51-Ig (Fc fusion)
chain: AGQCSQNEYFDHLIRACIPCQARCSSNTPPLTCQRYCNAGVTNSVKGTNA
notes: also called BAv51 (2)-Ig; not shown: PIg18: human IgG2 Fc, Ser at Fc positions 4, 5, 11 (native Cys)
With B7, in experiment [4], the dissociation constant (Kd) came out at 70.8 pM and the “fold improvement over control” value came to 0.00225 fold. In the experiment with FLAG-tagged human BAFF [5], the Kd was 0.192 pM and the “fold improvement over control” value worked out at 1180 fold. The “Selectivity for huAPRIL” value in experiment [6] is 0.003 ratio. In addition, the “Selectivity for huBAFF” value with FLAG-tagged human BAFF [7] amounted to 369 ratio.

B8: BAv53-Ig (Fc fusion)
chain: AGQCSQNEYFDSLIRHCIPCQVRCSSNTPPLTCQRYCNAGVTNSVKGTNA
notes: as for B1
With B8, in experiment [4], the Kd worked out at 34 pM and the “fold improvement over control” value was 0.00469 fold. In the experiment with FLAG-tagged human BAFF [5], the dissociation constant (Kd) came to 0.462 pM and the “fold improvement over control” value was found to be 488 fold. In experiment [6], the “Selectivity for huAPRIL” value stood at 0.014 ratio. Moreover, in the experiment with FLAG-tagged human BAFF [7], the “Selectivity for huBAFF” value was 73.6 ratio.

B9: BAv49-5L-pIg22 (Fc fusion, human)
chain: AGQCSQNEYFDPLIRACIPCQVRCSSNTPPLTCQRYCNAGVTNSVGGGGS
notes: as for B2
On to B9, for which the Kd in experiment [2] was determined as 1760 pM; with FLAG-tagged human BAFF [3] it was 14.1 pM.

B10: BAv81-5L-pIg22 (Fc fusion, human)
chain: AGQCSQNEYFDPLVRACIPCQVRCSSNTPPLTCQRYCNAGVTNSVGGGGS-pIg22
modifications: not fully specified; cysteine pairing not given here
notes: as for B2
On to B10, for which the Kd in experiment [2] came to 2420 pM; in the experiment with FLAG-tagged human BAFF [3] it was 6.75 pM.

B11: BAv64-Ig (Fc fusion)
chain: AGQCSQNEYFDHLYRACIPCQVRCSSNTPPLTCQRYCNAGVTNSVKGTNA
notes: as for B1
Consider B11, for which the binding result in experiment [1] is “no binding (tested: 150 nM)”.

B12: BAv60-Ig (Fc fusion)
chain: AGQCSQNEYFDSLVRHCIPCQVRCSSNTPPLTCQRYCNAGVTNSVKGTNA
notes: also called BAv60 (2)-Ig; not shown: PIg18: human IgG2 Fc, Ser at Fc positions 4, 5, 11 (native Cys)
Consider B12, for which, in experiment [4], the Kd worked out at 51.4 pM and the “fold improvement over control” value was 0.0031 fold. Moreover, in the experiment with FLAG-tagged human BAFF [5], the Kd was determined as 0.0537 pM and the “fold improvement over control” value came to 4200 fold. Moreover, in experiment [6], the “Selectivity for huAPRIL” value turned out to be 0.001 ratio. Besides, the “Selectivity for huBAFF” value in the experiment with FLAG-tagged human BAFF [7] turned out to be 957 ratio.

B13: BAv78-Ig (Fc fusion)
chain: AGQCSQNEYFDHLLRACIPCQYTCSSNTPPLTCQRYCNAGVTNSVKGTNA
notes: as for B1
With B13, the binding result in experiment [1] is listed as “no binding (tested: 150 nM)”.

B14: BAv63-Ig (Fc fusion)
chain: AGQCSQNEYFDHLARACIPCQVRCSSNTPPLTCQRYCNAGVTNSVKGTNA
notes: as for B1
In the case of B14, in experiment [1], the binding result is “no binding (tested: 150 nM)”.

B15: BAv55-Ig (Fc fusion)
chain: AGQCSQNEYFDHLGRACIPCQVRCSSNTPPLTCQRYCNAGVTNSVKGTNA
notes: as for B1
Regarding B15, the binding result in experiment [1] is reported as “no binding (tested: 150 nM)”.

B16: BAv82-Ig (Fc fusion)
chain: AGQCSQNEYFDPLVRACIPCQARCSSNTPPLTCQRYCNAGVTNSVKGTNA
notes: as for B1
B16: in experiment [1], the binding result is given as “no binding (tested: 150 nM)”.

B17: Variant 9-3-Ig (Fc fusion, human)
chain: AGQCSQNEYFDHLVRACIPCQVRCSSNTPPLTCQRYCNAGVTNSVKGTNAERKSSVECPPSPAPPVAGPSVFLFPPKPKDTLMISRTPEVTCVVVDVSHEDPEVQFNWYVDGVEVHNAKTKPREEQFNSTFRVVSVLTVVHQDWLNGKEYKCKVSNKGLPAPIEKTISKTKGQPREPQVYTLPPSREEMTKNQVSLTCLVKGFYPSDISVEWESNGQPENNYKTTPPMLDSDGSFFLYSKLTVDKSRWQQGNVFSCSVMHEALHNHYTQKSLSLSPGK
notes: domain: Fc; also called BAv9-3
Turning to B17, the “fold improvement over control” value in experiment [4] worked out at 0.008 fold; with FLAG-tagged human BAFF [5], 2660 fold. Also, in experiment [6], the “Selectivity for huAPRIL” value was determined as 0.005 ratio. Besides, the “Selectivity for huBAFF” value in the experiment with FLAG-tagged human BAFF [7] was 221 ratio.
